Where two headings read alike, the source gives them in different places.
B1: Tspan12-Rlu (human Tspan12 with Renilla luciferase at the C-terminus) (other, UniProt O95859 1-305, looked up)
chain: MAREDSVKCLRCLLYALNLLFWLMSISVLAVSAWMRDYLNNVLTLTAETRVEEAVILTYFPVVHPVMIAVCCFLIIVGMLGYCGTVKRNLLLLAWYFGSLLVIFCVELACGVWTYEQELMVPVQWSDMVTLKARMTNYGLPRYRWLTHAWNFFQREFKCCGVVYFTDWLEMTEMDWPPDSCCVREFPGCSKQAHQEDLSDLYQEGCGKKMYSFLRGTKQLQVLRFLGISIGVTQILAMILTITLLWALYYDRREPGTDQMMSLKNDNSQHLSCPSVELLKPSLSRIFEHTSMANSFNTHFEMEEL
notes: whole, on cells; also called Rlu-tagged Tspan12; not shown: Renilla luciferase (Rlu)
B2: Soluble-Rlu (enzyme)
chain: MTSKVYDPEQRKRMITGPQWWARCKQMNVLDSFINYYDSEKHAENAVIFLHGNAASSYLWRHVVPHIEPVARCIIPDLIGMGKSGKSGNGSYRLLDHYKYLTAWFELLNLPKKIIFVGHDWGACLAFHYSYEHQDKIKAIVHAESVVDVIESWDEWPDIEEDIALIKSEEGEKMVLENNFFVETMLPSKIMRKLEPEEFAAYLEPFKEKGEVRRPTLSWPREIPLVKGGKPDVVQIVRNYNAYLRASDDLPKMFIESDPGFFSNAIVEGAKKFPNTEFVKVKGLHFSQEDAPDEMGKYIKSFVERVLKNEQ
B3: CCK2R-YFP (receptor, UniProt P32239 1-447, looked up)
chain: MELLKLNRSVQGTGPGPGASLCRPGAPLLNSSSVGNLSCEPPRIRGAGTRELELAIRITLYAVIFLMSVGGNMLIIVVLGLSRRLRTVTNAFLLSLAVSDLLLAVACMPFTLLPNLMGTFIFGTVICKAVSYLMGVSVSVSTLSLVAIALERYSAICRPLQARVWQTRSHAARVIVATWLLSGLLMVPYPVYTVVQPVGPRVLQCVHRWPSARVRQTWSVLLLLLLFFIPGVVMAVAYGLISRELYLGLRFDGDSDSDSQSRVRNQGGLPGAVHQNGRCRPETGAVGEDSDGCYVQLPRSRPALELTALTAPGPGSGSRPTQAKLLAKKRVVRMLLVIVVLFFLCWLPVYSANTWRAFDGPGAHRALSGAPISFIHLLSYASACVNPLVYCFMHRRFRQACLETCARCCPRPPRARPRALPDEDPPTPSIASLSRLSYTTISTLGPG
notes: whole, on cells; Negative control of the saturation BRET; also called CCK2R-YFP, an unrelated seven-transmembrane receptor; not shown: YFP
B4: His8-tagged Lrp6 BP1-2 (Lrp6 extracellular beta-propeller domains 1 and 2) (receptor, UniProt O75581 20-631, looked up)
chain: APLLLYANRRDLRLVDATNGKENATIVVGGLEDAAAVDFVFSHGLIYWSDVSEEAIKRTEFNKTESVQNVVVSGLLSPDGLACDWLGEKLYWTDSETNRIEVSNLDGSLRKVLFWQELDQPRAIALDPSSGFMYWTDWGEVPKIERAGMDGSSRFIIINSEIYWPNGLTLDYEEQKLYWADAKLNFIHKSNLDGTNRQAVVKGSLPHPFALTLFEDILYWTDWSTHSILACNKYTGEGLREIHSDIFSPMDIHAFSQQRQPNATNPCGIDNGGCSHLCLMSPVKPFYQCACPTGVKLLENGKTCKDGATELLLLARRTDLRRISLDTPDFTDIVLQLEDIRHAIAIDYDPVEGYIYWTDDEVRAIRRSFIDGSGSQFVVTAQIAHPDGIAVDWVARNLYWTDTGTDRIEVTRLNGTMRKILISEDLEEPRAIVLDPMVGYMYWTDWGEIPKIERAALDGSDRVVLVNTSLGWPNGLALDYDEGKIYWGDAKTDKIEVMNTDGTGRRVLVEDKIPHIFGFTLLGDYVYWTDWQRRSIERVHKRSAEREVIIDQLPDLMGLKATNVHRVIGSNPCAEENGGCSHLCLYRPQGLRCACPIGFELISDMKTCIVPE
notes: domain: β-propeller domains 1-2 (BP1-2); for the separate Fc constructs BP1 is 20-325 and BP2 is 325-631; also called H8-Lrp6 BP1-2; not shown: His8 tag (eight histidines)
B5: Fz4-FcH6 (human Frizzled 4 CRD, residues 40-164, fused to Fc and His6 tags) (Fc fusion)
chain: EEERRCDPIRISMCQNLGYNVTKMPNLVGHELQTDAELQLTTFTPLIQYGCSSQLQFFLCSVYVPMCTEKINIPIGPCGGMCLSVKRRCEPVLKEFGFAWPESLNCSKFPPQNDHNHMCMEGPGD
notes: range 40-164; also called Fz4 CRD-FcH6; Fz4-FcH6 dimer; not shown: Fc tag of the pHL-IgL-FcH6 vector; His6 tag (six histidines)
B6: Lrp6 BP3-4 (Lrp6 extracellular beta-propeller domains 3 and 4) (receptor)
chain: VPEAFLLFSRRADIRRISLETNNNNVAIPLTGVKEASALDFDVTDNRIYWTDISLKTISRAFMNGSALEHVVEFGLDYPEGMAVDWLGKNLYWADTGTNRIEVSKLDGQHRQVLVWKDLDSPRALALDPAEGFMYWTEWGGKPKIDRAAMDGSERTTLVPNVGRANGLTIDYAKRRLYWTDLDTNLIESSNMLGLNREVIADDLPHPFGLTQYQDYIYWTDWSRRSIERANKTSGQNRTIIQGHLDYVMDILVFHSSRQSGWNECASSNGHCSHLCLAVPVGGFVCGCPAHYSLNADNRTCSAPTTFLLFSQKSAINRMVIDEQQSPDIILPIHSLRNVRAIDYDPLDKQLYWIDSRQNMIRKAQEDGSQGFTVVVSSVPSQNLEIQPYDLSIDIYSRYIYWTCEATNVINVTRLDGRSVGVVLKGEQDRPRAVVVNPEKGYMYFTNLQERSPKIERAALDGTEREVLFFSGLSKPIALALDSRLGKLFWADSDLRRIESSDLSGANRIVLEDSNILQPVGLTVFENWLYWIDKQQQMIEKIDMTGREGRTKVQARIAQLSDIHAVKELNLQEYRQHPCAQDNGGCSHICLVKGDGTTRCSCPMHLVLLQDELSCG
notes: domain: β-propeller domains 3-4 (BP3-4); not shown: His8 tag (His8 tagged Lrp6 ECD proteins)
B7: Fz8-FcH6 (Frizzled 8 CRD, residues 28-155, fused to Fc and His6 tags) (Fc fusion)
chain: ASAKELACQEITVPLCKGIGYNYTYMPNQFNHDTQDEAGLEVHQFWPLVEIQCSPDLKFFLCSMYTPICLEDYKKPLPPCRSVCERAKAGCAPLMRQYGFAWPDRMRCDRLPEQGNPDTLCMDYNRTD
notes: range 28-155; also called Fz8 CRD; not shown: Fc tag of the pHL-IgL-FcH6 vector; His6 tag (six histidines)
B8: Fz4-YFP-N (full-length human Fz4 with YFP residues 1-158 at the C-terminus) (receptor, UniProt Q9ULV1 37-537, looked up)
chain: FGDEEERRCDPIRISMCQNLGYNVTKMPNLVGHELQTDAELQLTTFTPLIQYGCSSQLQFFLCSVYVPMCTEKINIPIGPCGGMCLSVKRRCEPVLKEFGFAWPESLNCSKFPPQNDHNHMCMEGPGDEEVPLPHKTPIQPGEECHSVGTNSDQYIWVKRSLNCVLKCGYDAGLYSRSAKEFTDIWMAVWASLCFISTAFTVLTFLIDSSRFSYPERPIIFLSMCYNIYSIAYIVRLTVGRERISCDFEEAAEPVLIQEGLKNTGCAIIFLLMYFFGMASSIWWVILTLTWFLAAGLKWGHEAIEMHSSYFHIAAWAIPAVKTIVILIMRLVDADELTGLCYVGNQNLDALTGFVVAPLFTYLVIGTLFIAAGLVALFKIRSNLQKDGTKTDKLERLMVKIGVFSVLYTVPATCVIACYFYEISNWALFRYSADDSNMAVEMLKIFMSLLVGITSGMWIWSAKTLHTWQKCSNRLVNSGKVKREKRGNGWVKPGKGSETVV
notes: whole, on cells; also called YFP-N-tagged Fz4; not shown: YFP-N, residues 1-158 of YFP

Assays:
[1] = biological target: B8; experiment: split-YFP BRET assay (FIG. 6D)
[2] = biological target: T1, Fz4-YFP-C (full-length human Fz4 with YFP residues 159-239 at the C-terminus) (human, UniProt Q9ULV1 37-537); experiment: split-YFP BRET assay (FIG. 6D)
T1 construct: whole, on cells; also called YFP-C-tagged Fz4; not shown: YFP-C, residues 159-239 of YFP
T1 sequence (looked up): B8 chain

[3] = biological target: T2, Fz4-YFP (full-length human Fz4 with yellow fluorescent protein at the C-terminus) (human, UniProt Q9ULV1 37-537); experiment: static BRET in transfected COS-1 cells
T2 construct: whole, on cells; also called YFP-tagged Fz4; not shown: YFP
T2 sequence (looked up): B8 chain

[4] = biological target: T2, Fz4-YFP (full-length human Fz4 with …); experiment: static BRET in transfected COS-1 cells; remark: listed apart in the source
[5] = biological target: T3, Tspan12-YFP (human Tspan12 with YFP at the C-terminus) (human, UniProt O95859 1-305); experiment: static BRET in transfected COS-1 cells
T3 construct: whole, on cells; also called YFP-tagged Tspan12; not shown: YFP
T3 sequence (looked up): B1 chain

[6] = biological target: T4, Fz4-Rlu (full-length human Fz4 with Renilla luciferase at the C-terminus) (human, UniProt Q9ULV1 37-537); experiment: saturation BRET in transfected COS-1 cells
T4 construct: whole, on cells; also called Rlu-tagged Fz4; not shown: Renilla luciferase (Rlu)
T4 sequence (looked up): B8 chain

MBP-Norrin K54E/R109E = biological target: T5, MBP-Norrin K54E/R109E (human); experiment: AlphaScreen competition: unlabeled mutant MBP-Norrin against b-DKK1 peptide on H8-Lrp6 BP1-2
T5 construct: MBP tagged mutant purified like the wild-type; also called K54E/R109E double mutant

[7] = biological target: T6, MBP-Norrin (maltose binding protein fused to the N-terminus of human Norrin residues 25-133, wild-type) (human); experiment: calculated from the homologous competition assay (FIG. 4B, 4C); Kd derived from the same homologous competition
[8] = biological target: T6, MBP-Norrin (maltose binding protein …); experiment: biolayer interferometry; binding avidity of dimer to dimer (FIG. 8A)
biotinylated MBP-Norrin [9] = biological target: biotinylated MBP-Norrin (human); experiment: AlphaScreen saturation binding curve; binding avidity of dimer to dimer (FIG. 1E)
biotinylated MBP-Norrin [10] = biological target: biotinylated MBP-Norrin (human); experiment: AlphaScreen luminescence proximity assay
[11] = biological target: T6, MBP-Norrin (maltose binding protein …); experiment: three-step biolayer interferometry: Lrp6 BP3-4 on MBP-Norrin pre-bound to Fz4-FcH6 sensors
biotinylated MBP-Norrin [12] = biological target: biotinylated MBP-Norrin (human); experiment: AlphaScreen luminescence proximity assay; remark: listed apart in the source
[13] = biological target: T6, MBP-Norrin (maltose binding protein …); experiment: biolayer interferometry, Fz8-FcH6 on the sensor, MBP-Norrin in solution
[14] = biological target: T1, Fz4-YFP-C (full-length human Fz4 with …); experiment: split-YFP complementation: fluorescence microscopy, emission spectrum, anisotropy

## B1
[1]
  binding result: binds
[2]
  binding result: binds
[3]
  binding result: binds

## B2
[4]
  binding result: no binding
[5]
  binding result: no binding

## B3
[6]
  binding result: no binding (tested: YFP/Rlu about 33 (ratio))

## B4
MBP-Norrin K54E/R109E
  binding result: no binding (tested: 1.805 µM)
[7]
  Kd: ~450 nM

## B5
[8]
  Kd: ~5 nM
Biotinylated MBP-Norrin [9]
  Kd: ~11 nM

## B6
Biotinylated MBP-Norrin [10]
  binding result: no binding
[11]
  binding result: no binding (tested: 40 µg/ml)

## B7
Biotinylated MBP-Norrin [12]
  binding result: no binding
[13]
  binding result: no binding

## B8
[14]
  binding result: binds
